Here are results for one molecule from patent US20210040206A1 (OSE IMMUNOTHERAPEUTICS, published 2021).

By EC50 is commonly meant the concentration that produces a half-maximal response.

For test [1], the target named is T1, SIRPa V1 recombinant protein (extracellular domain fused with mouse Fc from IgG2a) (human; mouse, UniProt P78324 31-373).
T1 construct: not shown: mouse Fc from IgG2a
In words: ELISA on immobilised SIRPa variant-mouse Fc, donkey anti-human IgG peroxidase, TMB 450 nm; given as ED50. The protocol:
(§1) FIG. 4. SIRPa variants binding study using anti-human SIRPa v1 antibody and Kwar antibody by Elisa. Assessment of the binding by ELISA on immobilized SIRPa mutated variants (SIRPa from v1 to v8, see Table 2 in example 1) linked to the mouse Fc domain. Anti-human SIRPa v1 antibody and Kwar antibody (known to bind both SIRPa v1 and SIRPa v2) were compared for their ability to bind the different SIRPa mutated variants.
(§2) Method: The binding activity of the anti-SIRPa antibodies was assessed by ELISA. For the ELISA assay, the in-house anti-human SIRPa v1 antibody and Kwar antibody were tested on 8 different mutated hSIRPa (SIRPA v1 to v8; see table 2). The different variants of mutated hSIRPa (SIRPa v1 to v8) were immobilized on plastic at 0.5 μg/ml in carbonate buffer (pH9.2) and the purified antibody was added to measure binding.
For orientation: An ELISA detects its analyte on a solid surface through an enzyme-linked reagent.

Test [2] addresses T2, SIRPa V5 (SNP9 + 10 + 11) recombinant protein, extracellular domain fused with mouse Fc from IgG2a (human; mouse, UniProt P78324 31-373).
T2 construct: SNP11 (97 T) is silent; not shown: mouse Fc from IgG2a
The test is described as above. On the procedure: as §1, §2

Test [3] addresses T3, SIRPa V4 (SNP8) recombinant protein, extracellular domain fused with mouse Fc from IgG2a (human; mouse, UniProt P78324 31-373).
T3 construct: not shown: mouse Fc from IgG2a
The description is as above. The protocol: as §1, §2

For test [4], the target named is T4, SIRPa V3 (SNP1 + 2 + 3 + 4 + 5 + 6) recombinant protein, extracellular domain fused with mouse Fc from IgG2a (human; mouse, UniProt P78324 31-373).
T4 construct: SNP3 (51 A) is silent; not shown: mouse Fc from IgG2a
T4 chain: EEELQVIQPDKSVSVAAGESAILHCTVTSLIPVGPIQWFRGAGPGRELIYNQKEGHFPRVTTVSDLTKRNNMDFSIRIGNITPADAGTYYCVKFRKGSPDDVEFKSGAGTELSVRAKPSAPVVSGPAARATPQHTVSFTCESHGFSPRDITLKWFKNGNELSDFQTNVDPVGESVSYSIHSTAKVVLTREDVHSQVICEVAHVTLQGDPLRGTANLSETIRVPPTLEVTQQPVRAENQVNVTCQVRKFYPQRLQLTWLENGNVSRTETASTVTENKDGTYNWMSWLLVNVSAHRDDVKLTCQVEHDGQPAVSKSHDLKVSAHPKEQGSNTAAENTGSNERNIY
The test is described as above. On the procedure:
as §1, §2

For test [5], the target named is T5, SIRPa V7 (SNP14 + ?) recombinant protein, extracellular domain fused with mouse Fc from IgG2a (human; mouse, UniProt P78324 31-373).
T5 construct: not shown: mouse Fc from IgG2a
Described as above. On the procedure:
as §1, §2

Test [6] addresses T6, SIRPa V6 (SNP12 + 13) recombinant protein, extracellular domain fused with mouse Fc from IgG2a (human; mouse, UniProt P78324 31-373).
T6 construct: SNP13 is printed as 101 N without a change; not shown: mouse Fc from IgG2a
The test is described as above. On the procedure: as §1, §2

Test [7] addresses T7, human SIRPa v2 expressed by blood monocytes (V2/V2 donors) (human, UniProt P78324 31-504).
T7 construct: also called variant 2; V2 protein
In words: FACS competition on human monocytes of V2/V2 donors; blocked ligand: biotinylated CD47Fc, revealed with streptavidin-PE. On the procedure:
(§3) METHOD: Human monocytes (purified by elutriation from human PBMC at DTC platform, Nantes, and frozen in DMSO at 10M/ml at −80° C. or liquid nitrogen) were thawed in 40 mL complete RPMI medium. Then immediately centrifuged at 1000 rpm during 10 minCells are resuspended in 10 mL of RPMI medium and counted on Malassez cell. Frozen human monocytes are thawed, diluted samples are added and biotinylated CD47Fc is added afterwards. […] The following protocol was applied: —Put 100,000 human monocytes per well on V-bottom P96 plate; —Centrifuge 1 min at 2500 rpm and empty wells by flicking the plate; —Wash cells 2 times with 200 μL PSE (Centrifuge 1 min at 2500 rpm and empty wells); —Prepare 8 dilutions of the sample beginning with 10 μg/mL (concentrated 2×, final concentration 5 μg/mL) and diluting by steps of 3; —Add 12.5 μL of sample/well on cells and mix; —Incubate 15 min on ice; —Prepare CD47Fc biotinylated solution concentrated 2×, determined in function of paragraph and add 12.5 μL of this solution/well on cells and mix.—Incubate 30 min on ice; —Add 175 μL PSE/w-Centrifuge 1 min at 2500 rpm and empty wells; —Wash cells 2 times with 200 μL PSE (Centrifuge 1 min at 2500 rpm and empty wells). An intermediate concentration is chosen for CD47Fc biotinylated. Here, 5 μg/mL CD47Fc biotinylated are took for the antagonist test. […]

Test [8] concerns the target T8, human SIRPa v1 expressed by blood monocytes or monocyte-derived cells (V1/V1 donors) (human, UniProt P78324 31-504).
T8 construct: donors were typed on exon 3; also called variant 1
In words: FACS competition on human monocytes of V1/V1 donors; blocked ligand: biotinylated CD47Fc, revealed with streptavidin-PE. The protocol:
as §3

T8 sequence (P78324 31-504 limits assumed): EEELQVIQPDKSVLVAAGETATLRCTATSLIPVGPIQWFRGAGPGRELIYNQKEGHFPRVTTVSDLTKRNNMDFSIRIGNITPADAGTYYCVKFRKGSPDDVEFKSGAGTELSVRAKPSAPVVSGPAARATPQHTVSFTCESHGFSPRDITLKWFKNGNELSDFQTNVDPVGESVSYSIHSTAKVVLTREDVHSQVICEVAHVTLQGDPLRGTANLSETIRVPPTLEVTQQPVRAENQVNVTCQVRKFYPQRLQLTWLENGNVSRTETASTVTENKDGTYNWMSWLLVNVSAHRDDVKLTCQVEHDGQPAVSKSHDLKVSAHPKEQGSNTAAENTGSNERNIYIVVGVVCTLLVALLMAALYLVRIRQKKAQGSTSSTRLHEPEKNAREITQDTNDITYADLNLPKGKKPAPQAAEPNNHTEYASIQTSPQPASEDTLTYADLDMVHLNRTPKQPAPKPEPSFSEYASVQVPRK

B1: in-house anti-human SIRPa v1 antibody (antibody, human IgG4, V domains shown)
VH: EVQLVQSGAEVKKPGESLRISCKASGYSFTSYWVHWVRQMPGKGLEWMGNIDPSDSDTHYSPSFQGHVTLSVDKSISTAYLQLSSLKASDTAMYYCVRGGTGTLAYFAYWGQGTLVTVSS
VL: DVVMTQSPLSLPVTLGQPASISCRSSQSLVHSYGNTYLYWFQQRPGQSPRLLIYRVSNRFSGVPDRFSGSGSGTDFTLKISRVEAEDVGVYYCFQGTHVPYTFGGGTKVEIK
notes: also called in-house anti-SIRPa v1 antibody; in-house antibody
For B1, the EC50 in test [1] came to 0.78 ng/mL; in test [2], 0.63 ng/mL; in test [3], 0.71 ng/mL; in test [4] it was 0.99 ng/mL; in test [5], 0.54 ng/mL; in test [6] it was 0.72 ng/mL. In addition, the “IC50 (read off the curve)” value is approximately 0.2 µg/mL in test [7] and approximately 0.09 µg/mL in test [8].
